B1: anti-AFP nanobody A1, phage-displayed (VHH)
VHH: QVQLVESGGGLVQSGGSLRLSCAASMRGFRIVAGGWYRQSPGKQRELVADINYQDDTNYGDFVKGRFTISRDSAKNTLYLQMNSLKPEDTAVYYCSALSVIGNEFWGQGTQVTVSS
B2: anti-AFP nanobody A2, phage-displayed (VHH)
VHH: QVQLVESGGGLVQAGGSLGLSCAASGLGFSIVAGGWFRQAPGKERELVAAIGTGTGDINYGDSVKGRFTISSDSAKNTVYLQMNSLKPEDTAVYFCATTERYYTGSYDSRARPQSYGYWGQGTQVTVSS

Target: alpha fetal protein (AFP) (Homo sapiens, UniProt P02771)
Assay: ELISA

alpha fetal protein (AFP), sequence (P02771 19-609): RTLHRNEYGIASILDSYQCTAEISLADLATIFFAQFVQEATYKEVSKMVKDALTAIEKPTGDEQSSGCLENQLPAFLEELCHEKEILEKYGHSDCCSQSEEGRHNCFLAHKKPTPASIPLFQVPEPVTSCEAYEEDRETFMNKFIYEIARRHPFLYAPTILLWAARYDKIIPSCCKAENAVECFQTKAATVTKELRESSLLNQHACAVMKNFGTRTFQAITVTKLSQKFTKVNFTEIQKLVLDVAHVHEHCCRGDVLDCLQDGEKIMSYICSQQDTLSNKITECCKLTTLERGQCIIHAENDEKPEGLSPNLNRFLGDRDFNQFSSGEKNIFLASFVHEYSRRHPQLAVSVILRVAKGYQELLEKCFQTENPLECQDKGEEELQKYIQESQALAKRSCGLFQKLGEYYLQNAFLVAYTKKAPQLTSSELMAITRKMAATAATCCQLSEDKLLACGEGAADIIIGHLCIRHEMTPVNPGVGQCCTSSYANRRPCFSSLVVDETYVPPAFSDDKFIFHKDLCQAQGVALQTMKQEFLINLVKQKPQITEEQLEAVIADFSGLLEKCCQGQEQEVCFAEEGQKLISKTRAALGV

Binder | binding result
B1 | binds
B2 | binds
